Test results published in patent US20130102644, “Prophylactic or Ameliorating Agent for Genetic Diseases” (published 2013).

Target: hnRNP A1 (Homo sapiens, UniProt P09651 P09651:1-372)
Assay: EMSA; 100-400 ng protein; same as mutant at low protein, less efficient at 400 ng; 80 mM KCl, pH 7.9, E. coli tRNA, 20 C
Settings: tags: N-terminal GST (GST-pcDNA3), expressed in HEK293T; label: 32P
Experimental: Human hnRNP A1 cDNA was amplified by PCR. The obtained amplified fragment was inserted to between the BamHI and NotI sites of GST-pcDNA3 to prepare a GST-hnRNP A1 plasmid. The whole sequence of this plasmid was determined to confirm the plasmid to comprise the fragment of interest. HEK293T cells were transfected with this GST-hnRNP A1 plasmid, and the obtained transformed cells were cultured. A whole cell lysate was prepared from the collected transformed cells according to the method described in the document (Methods Mol Biol (2008) 488, 357-365). The GST-hnRNP A1 protein was purified from the whole cell lysate using an anti-GST affinity resin (manufactured by Sigma-Aldrich Corp.), basically as described in the document (The Journal of Biological Chemistry (2002) 277, 7540-7545) except that the resin was washed twice with buffer solution E (20 mM Hepes-KOH (pH 7.9), 1000 mM KCl, 0.2 mM EDTA, 10% glycerol, and 1 mM DTT) before elution from the column. Subsequently, mutant exon 31 RNA or wild-type exon 31 RNA labeled with ³²P was mixed with the GST-hnRNP A1 protein and incubated at 20° C. for 30 minutes. The obtained complex was subjected to gel mobility shift assay. […]
The gel mobility shift assay was basically conducted according to the method described in the document (Nucleic Acids Research (1995) 23, 3638-3641). […] Bands were analyzed by autoradiography. […]

hnRNP A1, sequence (P09651 whole entry, one chain of several): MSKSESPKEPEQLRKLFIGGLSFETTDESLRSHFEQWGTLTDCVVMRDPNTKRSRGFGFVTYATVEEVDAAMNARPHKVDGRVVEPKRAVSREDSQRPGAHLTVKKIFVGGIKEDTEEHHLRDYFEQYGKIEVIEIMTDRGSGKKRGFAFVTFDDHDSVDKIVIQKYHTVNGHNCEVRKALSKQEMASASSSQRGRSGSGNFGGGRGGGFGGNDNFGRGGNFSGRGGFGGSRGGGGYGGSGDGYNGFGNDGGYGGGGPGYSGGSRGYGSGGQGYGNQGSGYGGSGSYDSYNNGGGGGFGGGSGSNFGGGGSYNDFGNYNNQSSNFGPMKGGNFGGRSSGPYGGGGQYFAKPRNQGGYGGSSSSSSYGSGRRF

B1: dystrophin exon 31 RNA wild-type (ssRNA)
RNA: AAAAUCCAAUCUGAUUUGACAAGUCAUGAGAUCAGUUUAGAAGAAAUGAAGAAACAUAAUCAGGGGAAGGAGGCUGCCCAAAGAGUCCUGUCUCAGAUUGAUGUUGCACAG
binding result: binds
